Experimental data as given in patent publication US20090149389A1.

Molecular target: MAPKAP kinase II (MK2) (UniProt P49137)
Assay: cell-based or functional assay

Chain of MAPKAP kinase II (MK2) (P49137 whole entry): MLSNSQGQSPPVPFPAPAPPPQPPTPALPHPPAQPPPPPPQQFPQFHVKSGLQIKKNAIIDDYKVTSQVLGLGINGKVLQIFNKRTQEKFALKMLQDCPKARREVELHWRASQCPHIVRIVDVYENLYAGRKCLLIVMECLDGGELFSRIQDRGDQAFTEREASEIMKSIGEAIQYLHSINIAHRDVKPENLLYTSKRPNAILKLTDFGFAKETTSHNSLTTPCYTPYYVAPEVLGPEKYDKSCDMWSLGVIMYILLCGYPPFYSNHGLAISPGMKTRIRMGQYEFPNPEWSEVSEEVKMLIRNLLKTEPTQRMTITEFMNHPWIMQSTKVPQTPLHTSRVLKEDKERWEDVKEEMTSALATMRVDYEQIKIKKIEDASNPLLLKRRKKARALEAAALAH

- % of … [SEQ ID NO: 124] Reaction Velocity at an Inhibitor Concentration of 100 µM: 276%
Substance: KALNRdQLGVAA (peptide)
